Consider ten molecules from publication PMC10540216, “Activity Guided Azide-methyllysine Photo-trapping for Substrate Profiling of Lysine Demethylases” (Journal of the American Chemical Society, 2023).

The subject of the experiment is KDM4A-I71AzF. The experiment in a line: CASI: photo-crosslinking with HEK293T cell extracts, StrepTactin enrichment and LC-MS/MS proteomics.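 Also: lysates from HEK293T cells pretreated with a KDM4 inhibitor to raise proteome methylation, affinity-purified after ±UV, gel-resolved, trypsin-digested, with exclusive unique peptides per protein averaged per condition.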 The note with it: sheet "Final results but with 0.01". It counts as binding, human.

B1: SYFA_HUMAN (protein, UniProt Q9Y285 2-508, looked up)
Phenylalanine--tRNA ligase …: ADGQVAELLLRRLEASDGGLDSAELAAELGMEHQAVVGAVKSLQALGEVIEAELRSTKHWELTAEGEEIAREGSHEARVFRSIPPEGLAQSELMRLPSGKVGFSKAMSNKWIRVDKSAADGPRVFRVVDSMEDEVQRRLQLVRGGQAEKLGEKERSELRKRKLLAEVTLKTYWVSKGSAFSTSISKQETELSPEMISSGSWRDRPFKPYNFLAHGVLPDSGHLHPLLKVRSQFRQIFLEMGFTEMPTDNFIESSFWNFDALFQPQQHPARDQHDTFFLRDPAEALQLPMDYVQRVKRTHSQGGYGSQGYKYNWKLDEARKNLLRTHTTSASARALYRLAQKKPFTPVKYFSIDRVFRNETLDATHLAEFHQIEGVVADHGLTLGHLMGVLREFFTKLGITQLRFKPAYNPYTEPSMEVFSYHQGLKKWVEVGNSGVFRPEMLLPMGLPENVSVIAWGLSLERPTMIKYGINNIRELVGHKVNLQMVYDSPLCRLDAEPRPPPTQEAA
For B1, the “Fold change (+UV/-UV)” value worked out at 4.

B2: U2AF2_HUMAN (protein, UniProt P26368 2-475, looked up)
Splicing factor U2AF 65 kDa …: SDFDEFERQLNENKQERDKENRHRKRSHSRSRSRDRKRRSRSRDRRNRDQRSASRDRRRRSKPLTRGAKEEHGGLIRSPRHEKKKKVRKYWDVPPPGFEHITPMQYKAMQAAGQIPATALLPTMTPDGLAVTPTPVPVVGSQMTRQARRLYVGNIPFGITEEAMMDFFNAQMRLGGLTQAPGNPVLAVQINQDKNFAFLEFRSVDETTQAMAFDGIIFQGQSLKIRRPHDYQPLPGMSENPSVYVPGVVSTVVPDSAHKLFIGGLPNYLNDDQVKELLTSFGPLKAFNLVKDSATGLSKGYAFCEYVDINVTDQAIAGLNGMQLGDKKLLVQRASVGAKNATLVSPPSTINQTPVTLQVPGLMSSQVQMGGHPTEVLCLMNMVLPEELLDDEEYEEIVEDVRDECSKYGLVKSIEIPRPVDGVEVPGCGKIFVEFTSVFDCQKAMQGLTGRKFANRVVVTKYCDPDSYHRRDFW
Regarding B2, the “Fold change (+UV/-UV)” value is 2.

B3: SF3A3_HUMAN (protein, UniProt Q12874 1-501, looked up)
Splicing factor 3A subunit 3: METILEQQRRYHEEKERLMDVMAKEMLTKKSTLRDQINSDHRTRAMQDRYMEVSGNLRDLYDDKDGLRKEELNAISGPNEFAEFYNRLKQIKEFHRKHPNEICVPMSVEFEELLKARENPSEEAQNLVEFTDEEGYGRYLDLHDCYLKYINLKASEKLDYITYLSIFDQLFDIPKERKNAEYKRYLEMLLEYLQDYTDRVKPLQDQNELFGKIQAEFEKKWENGTFPGWPKETSSALTHAGAHLDLSAFSSWEELASLGLDRLKSALLALGLKCGGTLEERAQRLFSTKGKSLESLDTSLFAKNPKSKGTKRDTERNKDIAFLEAQIYEYVEILGEQRHLTHENVQRKQARTGEEREEEEEEQISESESEDEENEIIYNPKNLPLGWDGKPIPYWLYKLHGLNINYNCEICGNYTYRGPKAFQRHFAEWRHAHGMRCLGIPNTAHFANVTQIEDAVSLWAKLKLQKASERWQPDTEEEYEDSSGNVVNKKTYEDLKRQGLL
As to B3, the “Fold change (+UV/-UV)” value is recorded as 2.

B4: DDX17_HUMAN (protein, UniProt Q92841 1-729, looked up)
Probable ATP-dependent RNA …: MPTGFVAPILCVLLPSPTREAATVASATGDSASERESAAPAAAPTAEAPPPSVVTRPEPQALPSPAIRAPLPDLYPFGTMRGGGFGDRDRDRDRGGFGARGGGGLPPKKFGNPGERLRKKKWDLSELPKFEKNFYVEHPEVARLTPYEVDELRRKKEITVRGGDVCPKPVFAFHHANFPQYVMDVLMDQHFTEPTPIQCQGFPLALSGRDMVGIAQTGSGKTLAYLLPAIVHINHQPYLERGDGPICLVLAPTRELAQQVQQVADDYGKCSRLKSTCIYGGAPKGPQIRDLERGVEICIATPGRLIDFLESGKTNLRRCTYLVLDEADRMLDMGFEPQIRKIVDQIRPDRQTLMWSATWPKEVRQLAEDFLRDYTQINVGNLELSANHNILQIVDVCMESEKDHKLIQLMEEIMAEKENKTIIFVETKRRCDDLTRRMRRDGWPAMCIHGDKSQPERDWVLNEFRSGKAPILIATDVASRGLDVEDVKFVINYDYPNSSEDYVHRIGRTARSTNKGTAYTFFTPGNLKQARELIKVLEEANQAINPKLMQLVDHRGGGGGGGGRSRYRTTSSANNPNLMYQDECDRRLRGVKDGGRRDSASYRDRSETDRAGYANGSGYGSPNSAFGAQAGQYTYGQGTYGAAAYGTSSYTAQEYGAGTYGASSTTSTGRSSQSSSQQFSGIGRSGQQPQPLMSQQFAQPPGATNMIGYMGQTAYQYPPPPPPPPPSRK
Turning to B4, the “Fold change (+UV/-UV)” value is recorded as 1.

B5: SF3B4_HUMAN (protein, UniProt Q15427 2-424, looked up)
Splicing factor 3B subunit 4: AAGPISERNQDATVYVGGLDEKVSEPLLWELFLQAGPVVNTHMPKDRVTGQHQGYGFVEFLSEEDADYAIKIMNMIKLYGKPIRVNKASAHNKNLDVGANIFIGNLDPEIDEKLLYDTFSAFGVILQTPKIMRDPDTGNSKGYAFINFASFDASDAAIEAMNGQYLCNRPITVSYAFKKDSKGERHGSAAERLLAAQNPLSQADRPHQLFADAPPPPSAPNPVVSSLGSGLPPPGMPPPGSFPPPVPPPGALPPGIPPAMPPPPMPPGAAGHGPPSAGTPGAGHPGHGHSHPHPFPPGGMPHPGMSQMQLAHHGPHGLGHPHAGPPGSGGQPPPRPPPGMPHPGPPPMGMPPRGPPFGSPMGHPGPMPPHGMRGPPPLMPPHGYTGPPRPPPYGYQRGPLPPPRPTPRPPVPPRGPLRGPLPQ
Regarding B5, the “Fold change (+UV/-UV)” value stood at 0.75.

B6: SYDC_HUMAN (protein, UniProt P14868 1-501, looked up)
Aspartate--tRNA ligase, …: MPSASASRKSQEKPREIMDAAEDYAKERYGISSMIQSQEKPDRVLVRVRDLTIQKADEVVWVRARVHTSRAKGKQCFLVLRQQQFNVQALVAVGDHASKQMVKFAANINKESIVDVEGVVRKVNQKIGSCTQQDVELHVQKIYVISLAEPRLPLQLDDAVRPEAEGEEEGRATVNQDTRLDNRVIDLRTSTSQAVFRLQSGICHLFRETLINKGFVEIQTPKIISAASEGGANVFTVSYFKNNAYLAQSPQLYKQMCICADFEKVFSIGPVFRAEDSNTHRHLTEFVGLDIEMAFNYHYHEVMEEIADTMVQIFKGLQERFQTEIQTVNKQFPCEPFKFLEPTLRLEYCEALAMLREAGVEMGDEDDLSTPNEKLLGHLVKEKYDTDFYILDKYPLAVRPFYTMPDPRNPKQSNSYDMFMRGEEILSGAQRIHDPQLLTERALHHGIDLEKIKAYIDSFRFGAPPHAGGGIGLERVTMLFLGLHNVRQTSMFPRDPKRLTP
For the molecule B6, the “Fold change (+UV/-UV)” value is listed as 2.

B7: SYCM_HUMAN (protein, UniProt Q6PI48 48-645, looked up)
Aspartate--tRNA ligase, …: VVRTNTCGELRSSHLGQEVTLCGWIQYRRQNTFLVLRDFDGLVQVIIPQDESAASVKKILCEAPVESVVQVSGTVISRPAGQENPKMPTGEIEIKVKTAELLNACKKLPFEIKNFVKKTEALRLQYRYLDLRSFQMQYNLRLRSQMVMKMREYLCNLHGFVDIETPTLFKRTPGGAKEFLVPSREPGKFYSLPQSPQQFKQLLMVGGLDRYFQVARCYRDEGSRPDRQPEFTQIDIEMSFVDQTGIQSLIEGLLQYSWPNDKDPVVVPFPTMTFAEVLATYGTDKPDTRFGMKIIDISDVFRNTEIGFLQDALSKPHGTVKAICIPEGAKYLKRKDIESIRNFAADHFNQEILPVFLNANRNWNSPVANFIMESQRLELIRLMETQEEDVVLLTAGEHNKACSLLGKLRLECADLLETRGVVLRDPTLFSFLWVVDFPLFLPKEENPRELESAHHPFTAPHPSDIHLLYTEPKKARSQHYDLVLNGNEIGGGSIRIHNAELQRYILATLLKEDVKMLSHLLQALDYGAPPHGGIALGLDRLICLVTGSPSIRDVIAFPKSFRGHDLMSNTPDSVPPEELKPYHIRVSKPTDSKAERAH
Turning to B7, the “Fold change (+UV/-UV)” value was 1.

B8: NUCB1_HUMAN (protein, UniProt Q02818 27-461, looked up)
Nucleobindin-1: VPLERGAPNKEETPATESPDTGLYYHRYLQEVIDVLETDGHFREKLQAANAEDIKSGKLSRELDFVSHHVRTKLDELKRQEVSRLRMLLKAKMDAEQDPNVQVDHLNLLKQFEHLDPQNQHTFEARDLELLIQTATRDLAQYDAAHHEEFKRYEMLKEHERRRYLESLGEEQRKEAERKLEEQQRRHREHPKVNVPGSQAQLKEVWEELDGLDPNRFNPKTFFILHDINSDGVLDEQELEALFTKELEKVYDPKNEEDDMREMEEERLRMREHVMKNVDTNQDRLVTLEEFLASTQRKEFGDTGEGWETVEMHPAYTEEELRRFEEELAAREAELNAKAQRLSQETEALGRSQGRLEAQKRELQQAVLHMEQRKQQQQQQQGHKAPAAHPEGQLKFHPDTDDVPVPAPAGDQKEVDTSEKKLLERLPEVEVPQHL
B8: the “Fold change (+UV/-UV)” value is on record as 3.

B9: CACP_HUMAN (protein, UniProt P43155 1-626, looked up)
Carnitine O-acetyltransferase: MLAFAARTVVKPLGFLKPFSLMKASSRFKAHQDALPRLPVPPLQQSLDHYLKALQPIVSEEEWAHTKQLVDEFQASGGVGERLQKGLERRARKTENWLSEWWLKTAYLQYRQPVVIYSSPGVMLPKQDFVDLQGQLRFAAKLIEGVLDFKVMIDNETLPVEYLGGKPLCMNQYYQILSSCRVPGPKQDTVSNFSKTKKPPTHITVVHNYQFFELDVYHSDGTPLTADQIFVQLEKIWNSSLQTNKEPVGILTSNHRNSWAKAYNTLIKDKVNRDSVRSIQKSIFTVCLDATMPRVSEDVYRSHVAGQMLHGGGSRLNSGNRWFDKTLQFIVAEDGSCGLVYEHAAAEGPPIVTLLDYVIEYTKKPELVRSPLVPLPMPKKLRFNITPEIKSDIEKAKQNLSIMIQDLDITVMVFHHFGKDFPKSEKLSPDAFIQMALQLAYYRIYGQACATYESASLRMFHLGRTDTIRSASMDSLTFVKAMDDSSVTEHQKVELLRKAVQAHRGYTDRAIRGEAFDRHLLGLKLQAIEDLVSMPDIFMDTSYAIAMHFHLSTSQVPAKTDCVMFFGPVVPDGYGVCYNPMEAHINFSLSAYNSCAETNAARLAHYLEKALLDMRALLQSHPRAKL
Take B9: the “Fold change (+UV/-UV)” value came to 0.

B10: CPSF7_HUMAN (protein, UniProt Q8N684 1-471, looked up)
Cleavage and polyadenylation …: MSEGVDLIDIYADEEFNQDPEFNNTDQIDLYDDVLTATSQPSDDRSSSTEPPPPVRQEPSPKPNNKTPAILYTYSGLRNRRAAVYVGSFSWWTTDQQLIQVIRSIGVYDVVELKFAENRANGQSKGYAEVVVASENSVHKLLELLPGKVLNGEKVDVRPATRQNLSQFEAQARKRECVRVPRGGIPPRAHSRDSSDSADGRATPSENLVPSSARVDKPPSVLPYFNRPPSALPLMGLPPPPIPPPPPLSSSFGVPPPPPGIHYQHLMPPPPRLPPHLAVPPPGAIPPALHLNPAFFPPPNATVGPPPDTYMKASAPYNHHGSRDSGPPPSTVSEAEFEDIMKRNRAISSSAISKAVSGASAGDYSDAIETLLTAIAVIKQSRVANDERCRVLISSLKDCLHGIEAKSYSVGASGSSSRKRHRSRERSPSRSRESSRRHRDLLHNEDRHDDYFQERNREHERHRDRERDRHH
Turning to B10, the “Fold change (+UV/-UV)” value was 1.
